Data published in the supplement of paper PMC11246515.
± gives the standard deviation of the averaged measurements.

Assay: total protein half-life in vivo (active degradation + dilution); higher = more stable protein
[1] = E. coli NCM3722 delta-clpP delta-lon delta-hslV, growth: N-lim chemostat, doubling time 6 h
[2] = E. coli NCM3722 delta-clpP, growth: N-lim chemostat, doubling time 6 h
[3] = E. coli NCM3722 delta-hslV, growth: N-lim chemostat, doubling time 6 h
[4] = E. coli NCM3722 delta-lon, growth: N-lim chemostat, doubling time 6 h
[5] = E. coli NCM3722 delta-smpB, growth: N-lim chemostat, doubling time 6 h
[6] = wild type E. coli NCM3722, growth: C-lim chemostat, doubling time 3 h
[7] = wild type E. coli NCM3722, growth: C-lim chemostat, doubling time 6 h
[8] = wild type E. coli NCM3722, growth: C-lim chemostat, doubling time 12 h
[9] = wild type E. coli NCM3722, growth: N-lim chemostat, doubling time 6 h
[10] = wild type E. coli NCM3722, growth: N-lim chemostat, doubling time 12 h
[11] = wild type E. coli NCM3722, growth: P-lim chemostat, doubling time 6 h
[12] = wild type E. coli NCM3722, growth: P-lim chemostat, doubling time 12 h

Sequence	total protein half-life in vivo [1] [h]	total protein half-life in vivo [2] [h]	total protein half-life in vivo [3] [h]	total protein half-life in vivo [4] [h]	total protein half-life in vivo [5] [h]	total protein half-life in vivo [6] [h]	total protein half-life in vivo [7] [h]	total protein half-life in vivo [8] [h]	total protein half-life in vivo [9] [h]	total protein half-life in vivo [10] [h]	total protein half-life in vivo [11] [h]	total protein half-life in vivo [12] [h]
MQVFIMRHGDAALDAASDSVRPLTTNGCDESRLMANWLKGQKVEIERVLVSPFLRAEQTLEEVGDCLNLPSSAEVLPELTPCGDVGLVSAYLQALTNEGVASVLVISHLPLVGYLVAELCPGETPPMFTTSAIASVTLDESGNGTFNWQMSPCNLKMAKAI	4.59 ± 0.56	4.209 ± 0.026	0.943 ± 0.06	0.853 ± 0.11	1.03 ± 0.01	1.06 ± 0.013	1.35 ± 0.12	1.57 ± 0.41	1.13 ± 0.12	1.5 ± 0.33	1.25 ± 0.38	2.5 ± 0.88
MQYPINEMFQTLQGEGYFTGVPAIFIRLQGCPVGCAWCDTKHTWEKLEDREVSLFSILAKTKESDKWGAASSEDLLAVIGRQGYTARHVVITGGEPCIHDLLPLTDLLEKNGFSCQIETSGTHEVRCTPNTWVTVSPKLNMRGGYEVLSQALERANEIKHPVGRVRDIEALDELLATLTDDKPRVIALQPISQKDDATRLCIETCIARNWRLSMQTHKYLNIA	4.61 ± 0.46	3.94	3.81 ± 0.46	4.5 ± 0.086	3.79 ± 0.57	2.309 ± 0.014	4.33 ± 0.17	6.66 ± 0.86	3.7 ± 0.29	6.06 ± 0.13	4.61 ± 0.56	7.47 ± 0.8
MRACINNQQIRHHNKCVILELLYRQKRANKSTLARLAQISIPAVSNILQELESEKRVVNIDDESQTRGHSSGTWLIAPEGDWTLCLNVTPTSIECQVANACLSPKGEFEYLQIDAPTPQALLSEIEKCWHRHRKLWPDHTINLALAIHGQVDPVTGVSQTMPQAPWTTPVEVKYLLEEKLGIRVMVDNDCVMLALAEKWQNNSQERDFCVINVDYGIGSSFVINEQIYRGSLYGSGQIGHTIVNPDGVVCDCGRYGCLETVASLSALKKQARVWLKSQPVSTQLDPEKLTTAQLIAAWQSGEPWITSWVDRSANAIGLSLYNFLNILNINQIWLYGRSCAFGENWLNTIIRQTGFNPFDRDEGPSVKATQIGFGQLSRAQQVLGIGYLYVEAQLRQI	6.39 ± 0.56	6.61	5.18 ± 0.99	5.81 ± 0.79	3.95 ± 0.094	> 4	1.97	3	5.48 ± 0.83	7.97	3.12	4.85
MRALLPYLALYKRHKWMLSLGIVLAIVTLLASIGLLTLSGWFLSASAVAGVAGLYSFNYMLPAAGVRGAAITRTAGRYFERLVSHDATFRVLQHLRIYTFSKLLPLSPAGLARYRQGELLNRVVADVDTLDHLYLRVISPLVGAFVVIMVVTIGLSFLDFTLAFTLGGIMLLTLFLMPPLFYRAGKSTGQNLTHLRGQYRQQLTAWLQGQAELTIFGASDRYRTQLENTEIQWLEAQRRQSELTALSQAIMLLIGALAVILMLWMASGGVGGNAQPGALIALFVFCALAAFEALAPVTGAFQHLGQVIASAVRISDLTDQKPEVTFPDTQTRVADRVSLTLRDVQFTYPEQSQQALKGISLQVNAGEHIAILGRTGCGKSTLLQQLTRAWDPQQGEILLNDSPIASLNEAALRQTISVVPQRVHLFSATLRDNLLLASPGSSDEALSEILRRVGLEKLLEDAGLNSWLGEGGRQLSGGELRRLAIARALLHDAPLVLLDEPTEGLDATTESQILELLAEMMREKTVLMVTHRLRGLSRFQQIIVMDNGQIIEQGTHAELLARQGRYYQFKQGL	> 8	6.58 ± 0.21	6.08 ± 0.081	6.01 ± 0.34	5.928 ± 0.023	3.08 ± 0.092	5.92 ± 0.12	–	5.99 ± 0.31	11.7 ± 0.28	6.274 ± 0.058	12.3 ± 1.1
MRDIQMVLERWGAWAANNHEDVTWSSIAAGFKGLITSKVKSRPQCCDDDAMIICGCMARLKKNNSDLHDLLVDYYVVGMTFMSLAGKHCCSDGYIGKRLQKAEGIIEGMLMALDIRLEMDIVVNNSN	2.96	–	–	–	–	–	–	8.73	–	–	5.67	10.4 ± 0.22
MRFCLILITALLLAGCSHHKAPPPNARLSDSITVIAGLNDQLQSWHGTPYRYGGMTRRGVDCSGFVVVTMRDRFDLQLPRETKQQASIGTQIDKDELLPGDLVFFKTGSGQNGLHVGIYDTNNQFIHASTSKGVMRSSLDNVYWQKNFWQARRI	–	1.22	–	0.828	1.61 ± 0.18	0.468 ± 0.23	1.4	> 16	–	4.32	2.28	4.21 ± 0.75
MRFVDEYRAPEQVMQLIEHLRERASHLSYTAERPLRIMEVCGGHTHAIFKFGLDQLLPENVEFIHGPGCPVCVLPMGRIDTCVEIASHPEVIFCTFGDAMRVPGKQGSLLQAKARGADVRIVYSPMDALKLAQENPTRKVVFFGLGFETTMPTTAITLQQAKARDVQNFYFFCQHITLIPTLRSLLEQPDNGIDAFLAPGHVSMVIGTDAYNFIASDFHRPLVVAGFEPLDLLQGVVMLVQQKIAAHSKVENQYRRVVPDAGNLLAQQAIADVFCVNGDSEWRGLGVIESSGVHLTPDYQRFDAEAHFRPAPQQVCDDPRARCGEVLTGKCKPHQCPLFGNTCNPQTAFGALMVSSEGACAAWYQYRQQESEA	5.73	3.17 ± 0.086	2.4	2.92 ± 0.14	–	2.32 ± 0.034	3.94 ± 0.33	5.53 ± 0.43	2.2	2.79	3.08	5.78
MRGKKRIGLLFLLIAVVVGGGGLLLAQKVLHKTSDTAFCLSCHSMSKPFEEYQGTVHFSNQKGIRAECADCHIPKSGMDYLFAKLKASKDIYHEFVSGKIDSDDKFEAHRQEMAETVWKELKATDSATCRSCHSFDAMDIASQSESAQKMHNKAQKDSETCIDCHKGIAHFPPEIKMDDNAAHELESQAATSVTNGAHIYPFKTSHIGELATVNPGTDLTVVDASGKQPIVLLQGYQMQGSENTLYLAAGQRLALATLSEEGIKALTVNGEWQADEYGNQWRQASLQGALTDPALADRKPLWQYAEKLDDTYCAGCHAPIAADHYTVNAWPSIAKGMGARTSMSENELDILTRYFQYNAKDITEKQ	–	–	–	–	–	2.33	4.09	8.13 ± 1.1	–	–	–	–
MRHCGWLLGLLSLFSLATHASDWQEIKNEAKGQTVWFNAWGGDTAINRYLDWVSGEMKTHYAINLKIVRLADAADAVKRIQTEAAAGRKTGGSVDLLWVNGENFRTLKEANLLQTGWAETLPNWRYVDTQLPVREDFSVPTQGAESPWGGAQLTFIARRDVTPQPPQTPQALLEFAKANPGTVTYPRPPDFTGTAFLEQLLIMLTPDPAALKEAPDDATFARVTAPLWQYLDVLHPYLWREGKDFPPSPARMDALLKAGTLRLSLTFNPAHAQQKIASGDLPASSYSFGFREGMIGNVHFVTIPANANASAAAKVVANFLLSPDAQLRKADPAVWGDPSVLDPQKLPDGQRESLQSRMPQDLPPVLAEPHAGWVNALEQEWLHRYGTH	5.63 ± 0.51	6.09 ± 0.099	6.22 ± 0.27	6.17 ± 0.65	5.628 ± 0.055	3.45 ± 0.33	6.17 ± 0.22	13.7 ± 0.41	6.027 ± 0.021	13.4 ± 0.98	6.54 ± 0.45	12.3 ± 1.5
